Measured values taken from PMC8574189, “Surface-induced dissociation of protein complexes on a cyclic ion mobility spectrometer†” (The Analyst, 2021).

Tests used:
[1] = molecular target: alcohol dehydrogenase tetramer (from saccharomyces cerevisiae) (saccharomyces cerevisiae) (UniProt P00330); experiment: native MS; nanoelectrospray, 200 mM ammonium acetate, or charge-reduced in 160 mM ammonium acetate with 40 mM TEAA or EDDA; 5–10 μM protein complex; cyclic IMS (cIMS) and Synapt G2; TRAP with 14 equivalents of trp
[2] = molecular target: αβγHis heterotrimer of His-tagged toyocamycin nitrile hydratase (TNH); experiment: as above
[3] = molecular target: streptavidin homotetramer (UniProt P22629); experiment: as above
native MS = molecular target: the molecule itself; experiment: native MS
[4] = molecular target: T1, C-reactive protein pentamer, P02741; experiment: native MS; nanoelectrospray, 200 mM ammonium acetate, or charge-reduced in 160 mM ammonium acetate with 40 mM TEAA or EDDA; 5–10 μM protein complex; cyclic IMS (cIMS) and Synapt G2; TRAP with 14 equivalents of trp; details: remark: other sources report otherwise
T1 chain: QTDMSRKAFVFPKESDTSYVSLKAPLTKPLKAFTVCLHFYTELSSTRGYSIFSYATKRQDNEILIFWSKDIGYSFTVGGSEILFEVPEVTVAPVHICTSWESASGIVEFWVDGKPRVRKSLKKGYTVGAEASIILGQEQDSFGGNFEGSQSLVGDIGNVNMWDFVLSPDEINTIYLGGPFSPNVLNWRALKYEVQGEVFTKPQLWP

[5] = molecular target: the molecule itself; experiment: as above

alcohol dehydrogenase tetramer (from saccharomyces cerevisiae) (from UniProt P00330 1-348) (enzyme)
stoichiometry N [1]: 4

αβγHis heterotrimer of His-tagged toyocamycin nitrile hydratase (TNH) (complex)
stoichiometry N [2]: 2

streptavidin homotetramer (from UniProt P22629 25-183) (natural protein)
stoichiometry N [3]: 4

B1: cholera toxin B homopentamer (natural protein)
chain: TPQNITDLCAEYHNTQIYTLNDKIFSYTESLAGKREMAIITFKNGAIFQVEVPGSQHIDSQKKAIERMKDTLRIAYLTEAKVEKLCVWNNKTPHAIAAISMAN
notes: also called 58 kDa cholera toxin B homopentamer
stoichiometry N (native MS): 5

B2: C-reactive protein pentamer, P02741 19-224 (natural protein)
chain: QTDMSRKAFVFPKESDTSYVSLKAPLTKPLKAFTVCLHFYTELSSTRGYSIFSYATKRQDNEILIFWSKDIGYSFTVGGSEILFEVPEVTVAPVHICTSWESASGIVEFWVDGKPRVRKSLKKGYTVGAEASIILGQEQDSFGGNFEGSQSLVGDIGNVNMWDFVLSPDEINTIYLGGPFSPNVLNWRALKYEVQGEVFTKPQLWP
stoichiometry N [4]: 5

B3: phosphorylase B dimer from rabbit muscle (enzyme, UniProt P00489 1-843, looked up)
chain: MSRPLSDQEKRKQISVRGLAGVENVTELKKNFNRHLHFTLVKDRNVATPRDYYFALAHTVRDHLVGRWIRTQQHYYEKDPKRIYYLSLEFYMGRTLQNTMVNLALENACDEATYQLGLDMEELEEIEEDAGLGNGGLGRLAACFLDSMATLGLAAYGYGIRYEFGIFNQKICGGWQMEEADDWLRYGNPWEKARPEFTLPVHFYGRVEHTSQGAKWVDTQVVLAMPYDTPVPGYRNNVVNTMRLWSAKAPNDFNLKDFNVGGYIQAVLDRNLAENISRVLYPNDNFFEGKELRLKQEYFVVAATLQDIIRRFKSSKFGCRDPVRTNFDAFPDKVAIQLNDTHPSLAIPELMRVLVDLERLDWDKAWEVTVKTCAYTNHTVLPEALERWPVHLLETLLPRHLQIIYEINQRFLNRVAAAFPGDVDRLRRMSLVEEGAVKRINMAHLCIAGSHAVNGVARIHSEILKKTIFKDFYELEPHKFQNKTNGITPRRWLVLCNPGLAEIIAERIGEEYISDLDQLRKLLSYVDDEAFIRDVAKVKQENKLKFAAYLEREYKVHINPNSLFDVQVKRIHEYKRQLLNCLHVITLYNRIKKEPNKFVVPRTVMIGGKAAPGYHMAKMIIKLITAIGDVVNHDPVVGDRLRVIFLENYRVSLAEKVIPAADLSEQISTAGTEASGTGNMKFMLNGALTIGTMDGANVEMAEEAGEENFFIFGMRVEDVDRLDQRGYNAQEYYDRIPELRQIIEQLSSGFFSPKQPDLFKDIVNMLMHHDRFKVFADYEEYVKCQERVSALYKNPREWTRMVIRNIATSGKFSSDRTIAQYAREIWGVEPSRQRLPAPDEKIP
notes: glycogen phosphorylase b from rabbit muscle; 195 kDa dimer; also called PHB; source: from rabbit muscle, bought: Sigma Aldrich (lyophilized powder)
stoichiometry N [5]: 2

B4: trp RNA binding attenuation protein (TRAP) homo-11mer (natural protein, UniProt Q9X6J6 1-74, looked up)
chain: MYTNSDFVVIKALEDGVNVIGLTRGADTRFHHSEKLDKGEVLIAQFTEHTSAIKVRGKAYIQTRHGVIESEGKK
notes: 91 kDa homo-11mer; it could be B. subtilis; also called holoTRAP; source: obtained from the Foster group (The Ohio State University) and the Gollnick group (State University of NY, Buffalo); copies: 11
stoichiometry N [5]: 11
